Measured values reported in US20140044674A1.

Target: IL-10R on freshly isolated human blood monocytes (human) (UniProt Q13651)
Experiment: cell-based or functional assay

Chain of IL-10R on freshly isolated human blood monocytes (human) (Q13651 22-578, chain 1 of 2): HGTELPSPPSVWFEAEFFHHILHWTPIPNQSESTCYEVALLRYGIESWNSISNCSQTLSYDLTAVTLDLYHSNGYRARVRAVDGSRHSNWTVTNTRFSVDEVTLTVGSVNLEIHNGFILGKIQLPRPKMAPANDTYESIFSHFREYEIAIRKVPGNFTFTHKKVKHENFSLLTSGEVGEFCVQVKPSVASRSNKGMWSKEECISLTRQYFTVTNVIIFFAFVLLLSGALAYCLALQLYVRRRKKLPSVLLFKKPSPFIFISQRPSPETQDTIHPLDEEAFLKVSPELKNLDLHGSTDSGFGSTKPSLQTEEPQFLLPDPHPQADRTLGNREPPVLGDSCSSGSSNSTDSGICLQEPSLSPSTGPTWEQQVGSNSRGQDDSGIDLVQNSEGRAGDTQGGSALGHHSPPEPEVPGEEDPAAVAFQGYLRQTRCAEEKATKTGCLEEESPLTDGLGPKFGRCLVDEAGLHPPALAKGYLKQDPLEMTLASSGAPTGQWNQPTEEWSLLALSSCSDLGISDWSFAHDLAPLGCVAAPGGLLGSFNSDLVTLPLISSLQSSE
Chain of IL-10R on freshly isolated human blood monocytes (human) (Q08334 20-325, chain 2 of 2, further chain): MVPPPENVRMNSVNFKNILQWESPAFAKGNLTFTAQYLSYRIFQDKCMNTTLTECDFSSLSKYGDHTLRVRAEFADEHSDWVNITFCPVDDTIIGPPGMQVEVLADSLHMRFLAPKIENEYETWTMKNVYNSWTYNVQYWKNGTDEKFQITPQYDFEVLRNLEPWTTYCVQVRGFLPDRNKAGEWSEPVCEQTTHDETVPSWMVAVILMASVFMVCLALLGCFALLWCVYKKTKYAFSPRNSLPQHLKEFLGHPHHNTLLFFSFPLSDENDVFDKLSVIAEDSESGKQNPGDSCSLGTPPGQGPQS

With “recombinant wild type human IL-10 (from UniProt P22301 19-178) (ligand)” the EC50 [nM] pSTAT3 induction, primary monocytes was 0.017 nM, the EC50 [nM] pSTAT3 induction, primary monocytes, Donor 1 was 0.029 nM and the EC50 [nM] pSTAT3 induction, primary monocytes, Donor 2 was 0.019 nM. For the same substance, the EC50 [nM] pSTAT3 induction, primary monocytes, Donor 3 was 0.021 nM.
